The text below walks through data of the DeepSol protein solubility set.

The nature of this data set: soluble on expression in E. coli; label from the status in PepcDB or PDB records.
Consider “MAHHHHHHMEMGGDIVGNIMMLELETFSDEEAAYLTSPDAPHSHIVDEVVEALFENVCTAPRRCSWNTPSVRPEWKEEFRFAGEWWLSMRVLPATVNPNEYHPPLIPFLLRNVQTENQFIADLALHMRQRSSVLSLLHMDHISITPDRASVLLFEGILRNEAQNLECLSLSFCEVGAATLLLILCGLNQCRSIQPQLRYLNLSYNWIDASCSNMMAMLLERTSIRRLSLHGNRFGGSDITSFYDFLLQGCSLLEELDLSYTALTCAEVCALISCLPRMRNLEVLLLDGVEVPDNKAAALSTAIRKSNLIHVSLKGIIACNGEAYLHRIHKACQRNRAARDFLKDRSTLRYFSEGGSFFEAFARRTCEMQRLDDRALPVTYRPFVTNDPSLLPAKNL”, for which the “soluble on expression in E. coli” value is listed as “not soluble”.

Turning to “MAHHHHHHMRLTPLRCSAAAFHFTSLLLQGSGGGYRFFEDMYPKHDPAPRYRYYEDQMQSPTVRSLEPKKQMTETEKLHHLHDWKKDKEGLTPPPEFGWPEEWGPEPGEEGHSEWYRKNRMYMSYEEKSRYDLRVGVPVEKNSMRHQEMPYQKRMKAAYVNLEEKNPQYFDPRQRKYWAEYSYEDQRDTMAKARDDYIKEWLDEPGVTKENVAKKIGDYNGTAKNQNVKSVQRRPEWELAPRPEYDDD”, the “soluble on expression in E. coli” value is “not soluble”.

Turning to “MSRRAPMFKPLPITLQRGALRLEPLVEADIPELVSLAEANREALQYMDGPTRPDWYRQSLAEQREGRALPLAVRLGVQLVGTTRFAEFLPALPACEIGWTWLDQAQHGSGLNRMIKYLMLKHAFDNLRMVRVQLSTAASNLRAQGAIDKLGAQREGVLRNHRRLAGGRLDDTFVYSITDHEWPQVKAALEASFTG”, the “soluble on expression in E. coli” value is on record as “soluble”.

“MMQISSNGITRLKREEGERLKAYSDSRGIPTIGVGHTGKVDGNSVASGMTITAEKSSELLKEDLQWVEDAISSLVRVPLNQNQYDAMCSLIFNIGKSAFAGSTVLRQLNLKNYQAAADAFLLWKKAGKDPDILLPRRRRERALFLS”: the “soluble on expression in E. coli” value is on record as “soluble”.

Regarding “MSDSFGVYVHVPFCSSRCGYCDFNTYTPGELGGTASPESYLDALEKELELAAASGTTRPATTVFIGGGTPSMLGASGLTRVLSAVRNTIGIAPGAEVTTESNPETTSPEFFSELLDAGYNRISLGMQSASSSVLRVLERKHTPGRAFDAALEAMNAGFLHVNLDMIYGTPTETDDDVRLTLERALDTGVDHISAYSLIVEDGTAMARKVHKGQLPPPNEDVYADRYGLIDTALRAQGFDWYEVSNWAKPGGECQHNLGYWLDGDWWGAGPGAHSHIASRRFFNVKHPSTYAQHLADGQLPIKEEELLDSTERHEESVMLGLRLRQGLELSRFTEAERAVIEKYVGLKLLHIYDGRVASTLQGRLLIDGIIADILVAYLEHHHHHH”, the “soluble on expression in E. coli” value is on record as “not soluble”.

Consider “SLNTPFSIDEVSFRDLPGWGQDDPRKLFPAMATILSHLRNAKPYRTGALGITAAELVSLLELAERGQVNSPEQARQFFETNSVPFRISPAQGKSGFVTAFYEPELEVSATPDDVWRYPIYRRPPELVDIDNDNRPDGFDPSYAFGKADEEGISYFPDRRAIDEGCLRGRGLEIAWARSKVDLFFVHVQGAARLVFPDGAIKRITYAAKAGHVFSPIGRLLLDRGELDPKTISMQTIRQWLADHPDEVDGVLWHNRSYIFFREADVAGLDMGPIAAAKVPLVAGRALAVDRLIHTFGLPFFIHAPTLTHLDDGKPFARLMLALDTGSAIVGPARGDIFTGSGFEAGELAGTVRNEADFYILLPRIAAERYRR”, for which the “soluble on expression in E. coli” value is given as “not soluble”.

For “MSLREGYLPAVITVSGKDRPGVTAAFFRVLSANQVQVLDVEQSMFRGFLNLAAFVGIAPERVETVTTGLTDTLKVHGQSVVVELQETVQSSRPRSSHVVVVLGDPVDALDISRIGQTLADYDANIDTIRGISDYPVTGLELKVTVPDVSPGGGEAMRKALAALTSELNVDIAIERSGLLRRSKRLVCFDCDSTLITGEVIEMLAAHAGKEAEVAAVTERAMRGELDFEESLRERVKALAGLDASVIDEVAAAIELTPGARTTIRTLNRMGYQTAVVSGGFIQVLEGLAEELELDYVRANTLEIVDGKLTGNVTGKIVDRAAKAEFLREFAADSGLKMYQTVAVGDGANDIDMLSAAGLGVAFNAKPALKEIADTSVNHPFLDEVLHIMGISRDEGHHHHHH”, the “soluble on expression in E. coli” value is recorded as “soluble”.

As for “MRPIEEFVYVGNQVIVPDQASLMRCYYPIIGGEGYALYQYFVAFYDNGNHRHKFATILNHLNFGMQPLQESLAVLTAVDLLAFYHSPQGIYVVELKSPLSIEQFLKHAVYSSLLEQKIGEPAVDALKPTSLHGLQDLSKRFSDVFTDERLAQKSVSEIKPKNSFDLISFRNRMQADGLVFTDEKTDVPEIYKLSETYDMNWYDTYLLSKKTAVNHRIIVKRMQVQLEQAQAQKLGGDSALTETEKKILKAVKSGKPVDYLQSAKGPGGTVTNSEKKILTDLAQRGFMDEVINLMVAYSLGRTRSTNVNREYISKVANDFDFKKIVTAEQGLLALRSGYDKKSQRAKDDSKKKTNVPSWSDPDYDNQTNQADQAKLDEIRRRALAKLEKG”, the “soluble on expression in E. coli” value was “not soluble”.

In the case of “MGHHHHHHSHMLKKAKMAKDRKSRKKPVEVKKGKDPNAPKRPMSAYMLWLNASREKIKSDHPGISITDLSKKAGEIWKGMSKEKKEEWDRKAEDARRDYEKAMKEYEGGRG”, the “soluble on expression in E. coli” value is given as “soluble”.

As for “MAETQFTRFPFQPFIIEAIKTLRFYKPTEIQERIIPGALRGESMVGQSQTGTGKTHAYLLPIMEKIKPERAEVQAVITAPTRELATQIYHETLKITKFCPKDRMIVARCLIGGTDKQKALEKLNVQPHIVIGTPGRINDFIREQALDVHTAHILVVDEADLMLDMGFITDVDQIAARMPKDLQMLVFSATIPEKLKPFLKKYMENPTFVHVLEHHHHHH”, the “soluble on expression in E. coli” value is given as “soluble”.

Turning to “MAFFESDIVQDEAKRLFGDYQQLMQLGSEYGKFDREGKKKFIETMEELMGRYRVFMKRFELSEDFQAKLTVEQLRTQLSQFGITPEQMFEQMNATLERMKAQIELPPSS”, the “soluble on expression in E. coli” value is given as “not soluble”.

Take “MTEPTVARPDIDPVLKMLLDTFPVTFTAADGVEVARARLRQLKTPPELLPELRIEERTVGYDGLTDIPVRVYWPPVVRDNLPVVVYYHGGGWSLGGLDTHDPVARAHAVGAQAIVVSVDYRLAPEHPYPAGIDDSWAALRWVGENAAELGGDPSRIAVAGDSAGGNISAVMAQLARDVGGPPLVFQLLWYPTTMADLSLPSFTENADAPILDRDVIDAFLAWYVPGLDISDHTMLPTTLAPGNADLSGLPPAFIGTAEHDPLRDDGACYAELLTAAGVSVELSNEPTMVHGYVNFALVVPAAAEATGRGLAALKRALHA”: the “soluble on expression in E. coli” value was “soluble”.

Take “MTEGDDQLISIRKQLENLNNATDDINSYEMKLETVKKQFCETQLMFNKEMLGIPKKLAKHISKSRQFFDLKSRESEIRRCVQQAAAQFERQKTSVEMAREQVQILHNSLNNNQELDAEKQYVDVIEQQLELVKEAEGECLKAEKCHASRVRDLLQLEMALRKCLEENGSAIKKSRPYYERKEVLTRTMNSQLELMSILEHEVQERKDSYSDSMRALEQISDQIHQERSSQSSLAPSSDAESDSS”: the “soluble on expression in E. coli” value was “not soluble”.

Turning to “MGSDKIHHHHHHMTRVLKVDPLFPDEKVLKEAAELLRNGEVIIFPTETVYGIGADAYNEEACKKIFKLKERPADNPLIVHIHSFKQLEEIAEGYEPHLDFLKKFWPGPLTVIFRKKSEKIPPVVTADLPTVAVRMPAHPVALKLIELFGHPIAAPSANISGRPSATNVKHVIEDFMGKVKLIIDAGDTPFGLESTIVDLTKEKPVLLRPGPVEVERLKELFPELVVPDFVRKGNFKGRPLAPGMKYRHYAPLKPLILVEDLTKMEEVLKKYPDHVVICVEERKELYDDRIVVGSLKNPYSIAQNIFSALREAEKMGKEYIIVEGFEERGILFAVMNRLRKAATEIVR”, the “soluble on expression in E. coli” value is “not soluble”.

Take “MNEALSSGKVKNGEFLTVYLKEKLPDRLHYSQSYRIPPIIGMVGEGLIVRQNRTNAQECYGDHGYDNKFFSMRTIFVGHGSRFRRGKKVPSFENVQIYSVVADILGLRPAPNNGSSLFPRSILLPFRATRGLE”: the “soluble on expression in E. coli” value is “not soluble”.

With “MTVAKAIFIKCGNLGTSMMMDMLLDERADREDVEFRVVGTSVKMDPECVEAAVEMALDIAEDFEPDFIVYGGPNPAAPGPSKAREMLADSEYPAVIIGDAPGLKVKDEMEEQGLGYILVKPDAMLGARREFLDPVEMAIYNADLMKVLAATGVFRVVQEAFDELIEKAKEDEISENDLPKLVIDRNTLLEREEFENPYAMVKAMAALEIAENVADVSVEGCFVEQDKERYVPIVASAHEMMRKAAELADEARELEKSNDAVLRTPHAPDGKVLSKRKFMEDPE”, the “soluble on expression in E. coli” value is given as “soluble”.

“MAHHHHHHMDFVKELKSSQDYMNNELTYGAHNYDPIPVVLKRGKGVFVYDIEDRRYYDFLSAYSSVNQGHCHPDILNAMINQAKKLTICSRAFFSDSLGVCERYLTNLFGYDKVLMMNTGAEASETAYKLCRKWGYEVKKIPENSAKIIVCNNNFSGRTLGCVSASTDKKCKNNFGPFVPNFLKVPYDDLEALEKELQDPNVCAFIVEPVQGEAGVIVPSDSYFPGVASLCKKYNVLFVADEVQTGLGRTGKLLCTHHYGVKPDVILLGKALSGGHYPISAILANDDVMLVLKPGEHGSTYGGNPLAAAICVEALKVLINEKLCENADKLGAPFLQNLKEQLKDSKVVREVRGKGLLCAIEFKNDLVNVWDICLKFKENGLITRSVHDKTVRLTPPLCITKEQLDECTEIIVKTVKFFDDNL”: the “soluble on expression in E. coli” value was “soluble”.

Turning to “MGSDKIHHHHHHMPAIIKQFFFKSHEMTLSDPRFLSLNQWLNAYFSDEVTPVLISGDASFRRYFRITTPDATFIAADSPPQLVPIAPFIALSNAYAAVGLTVPKVIHADAAQGFMLMSDLGDTQLLSVLNVQNVADYYRQALDLLPQVASVVASQHLDSGLVQPLPLYDEAFVRRELHIFTEWLLGTHLNLSLDESEQQMLSHSFDLLVDYALSQPSVGMHRDFHSRNLMLQAGELCVIDFQDAVVGPVTYDAVSLLRDCYIRWPQPLVADLMQYHYQQALALGFIPALTTLEQYQTWFDLMGLQRHIKAVGIFARLNYRDSKPAYMADIPLTLTYIVDIAMQYPELVPFAHWLTRRVLPAFTASQSLSEVKQ”, the “soluble on expression in E. coli” value is reported as “not soluble”.

On to “MHAIDFKEIQEKLSDGFRPWQRSFQFWARATDIYTGYKVFQLRMNFVKDVNKHEEMWERQHELAAHKVYSMCSDLGGFFLKIAQILGKPDLAPAAWVRKLVTLCDQAPATPFDAVRVVLEKELGKSIEQVFETFDEKPLGSASIAQVQHPGVEKLMMVDIRNLQIFALYMQKTDIKFDLFSMTKEIEKQIGYEFDFKREANAMEKIRRFLYDNNRKSPVLVPRVFPNLVTRKVLVMEFMNGIPILSLGDEMAKRGINPHGKMAEAAKFNILHSLSQAYGQMILKSGFFHADPHPGNILIGKGSEASHLLELGIATVAKCKNEQQELLQLAKTMFDTEMPPGTTTLQPFSEDSSIKKISVEAFPEELFSVLRTVVLLRGLSVGIGINYSCAQHWRAMAEEALHASGRLSTG”, for which the “soluble on expression in E. coli” value is recorded as “soluble”.

Consider “MVKKSYVINWARDLANRGVGVNYDGAFGSQCVDLPFWILGKFFGRPISGNAIDLLNSAKAAGYQVIYDAPGVNPRVGDIFVMHSIAYDGKDYGHTGLVIEDSDGHSIKTIEQNVDGNADNLYVGGPARYRTRSFNGIIGWIRPPYENEILENKREETDMRDFFVITNSEYTFAGVHYAKGAVLHVSPTQKRAFWVIADQENFIKQVNKNIEYVEKNASPAFLQRIVEIYQVKFEGKNVH”, for which the “soluble on expression in E. coli” value is given as “soluble”.
